{"source": "paper PMC10175261", "binders": {"B1": {"name": "Fork 1 (structured_DNA)", "DNA 1": "GCAAGCCTTCTACAGGTCGACCGTCCATGGCGACTCGAGACCGCAATACGGATAAGGGCTGAGCACGCCGACGAACATTCACCACGCCAGACCACGTA", "DNA 2": "GACTATCTACGTCCGAGGCTCGCGCCGCAGACTCATTTAGCCCTTATCCGTATTGCGGTCTCGAGTCGCCATGGACGGTCGACCTGTAGAAGGCTTGC", "DNA 3": "TACGTGGTCTGGCGTGGTGAATGTTCGTCGGCGTGCTC"}}, "molecular_target": "PriA (Escherichia coli, UniProt P17888 1-732)", "details": "protein: recombinant; tags: N-terminal His; label: 5'-32P on 3L-98 (strand 2); fork 1:2 1:3; ssDNA lagging arm (strand 2)", "data": [{"binder": "B1", "values": [{"measurement": "binding signal", "result": "91.9 ± 4.1", "unit": "% fork shifted"}]}]}
